In patent US20240175869A1:
One block for each substance: values may come before it.

Tests used:
[1] = target: ALK6; assay: solid-phase binding assay, half max read from the curve (FIG. 9)
[2] = target: ALK6; assay: solid-phase binding assay, saturation measured at 100 nM ALK6, pH 6.0
[3] = target: ALK6; assay: solid-phase binding assay, isolated domain immobilized, ALK6 titrated (FIG. 9)
[4] = target: ALK6; assay: solid-phase binding assay, MuSK construct immobilized, ALK6 titrated, pH 6.0; given as Half Max
[5] = target: ALK6; assay: solid-phase binding assay, saturation measured at 100 nM ALK6, pH 7.4
[6] = target: ALK6; assay: solid-phase binding assay, half max read from the curve (FIG. 10)
[7] = target: ALK6; assay: solid-phase binding assay, several assays, ALK6 at 100 nM
[8] = target: ALK6; assay: solid-phase binding assay, MuSK construct immobilized, ALK6 titrated, pH 7.4; given as Half Max
[9] = target: ALK6; assay: solid-phase binding assay, pH 7.4 (FIG. 13)
[10] = target: ALK6; assay: solid-phase binding assay, pH 6.0 (FIG. 13)
[11] = target: ALK6; assay: solid-phase binding assay, MuSK immobilized, ALK6 at 100 nM (FIG. 7)
[12] = target: ALK6; assay: solid-phase binding assay, pH 7.4 (FIG. 12)
[13] = target: ALK6; assay: solid-phase binding assay, pH 6.0 (FIG. 12)
[14] = target: ALK6; assay: solid-phase binding assay, half max read from the curve (FIG. 8)
[15] = target: ALK6; assay: solid-phase binding assay, MuSK construct immobilized, ALK6 at 100 nM (FIG. 8)

MuSK Ig1-Ig2 only construct, His-tagged (receptor), sequence (Q62838 22-205): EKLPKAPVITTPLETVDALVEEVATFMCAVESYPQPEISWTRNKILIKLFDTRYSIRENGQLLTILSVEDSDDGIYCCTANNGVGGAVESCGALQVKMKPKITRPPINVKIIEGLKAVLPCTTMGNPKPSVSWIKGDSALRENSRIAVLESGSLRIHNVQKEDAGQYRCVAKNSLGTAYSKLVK
ALK6, sequence (O00238 14-126): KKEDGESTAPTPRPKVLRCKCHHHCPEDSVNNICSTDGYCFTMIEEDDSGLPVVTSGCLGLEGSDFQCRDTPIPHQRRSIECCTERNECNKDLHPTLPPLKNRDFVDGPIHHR
isolated MuSK Ig2 domain, His-tagged (receptor), sequence (Q62838 121-205): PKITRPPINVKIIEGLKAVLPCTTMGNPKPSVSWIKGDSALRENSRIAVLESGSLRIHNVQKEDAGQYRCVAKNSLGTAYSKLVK

- EC50 [1]: 0.00625 µM
- Saturation (%) [2]: 83%
- absorbance (absorbance (450 nm)) [3]: 1.8
- EC50 [4]: 0.0236 µM
Substance: isolated MuSK Ig2 domain, His-tagged (receptor)

- Saturation (%) [5]: 99%
- EC50 [6]: 0.0125 µM
- absorbance at 100 nM ALK6 (absorbance (450 nm)) [7]: > 3
- EC50 [8]: 0.0091 µM
- Saturation (%) [2]: 100%
- EC50 [9]: 0.0065 µM
- maximum absorbance (absorbance (450 nm)) [9]: 4
- EC50 [10]: 0.0065 µM
- maximum absorbance (absorbance (450 nm)) [10]: 4
- EC50 [4]: 0.0137 µM
Substance: MuSK ectodomain with an Ig1 deletion (ΔIg1), His-tagged (receptor)

- absorbance at 100 nM ALK6 (absorbance (450 nm)) [11]: 0.15
Substance: MuSK ectodomain with Ig2 deletion (ΔIg2), His-tagged (receptor)

- Saturation (%) [5]: 21%
- EC50 [12]: 0.025 µM
- absorbance (absorbance (450 nm)) [12]: 0.75
- EC50 [13]: 0.00625 µM
- absorbance (absorbance (450 nm)) [13]: 3
- EC50 [8]: 0.0182 µM
- EC50 [14]: 0.00625 µM
- Saturation (%) [2]: 99%
- absorbance at 100 nM ALK6 (absorbance (450 nm)) [15]: 3
- EC50 [4]: 0.0159 µM
Substance: MuSK Ig1-Ig2 only construct, His-tagged (receptor)
